The source of these data is publication PMC11633198, “Vibrio cholerae CsrA controls ToxR levels by increasing the stability and translation of toxR mRNA”.

The target in data set [1] is T1, CsrA (Vibrio cholerae, UniProt Q9KUH3 1-65). As to the kind of experiment: EMSA; 1 nM RNA. Particulars: protein: recombinant; tags: N-terminal 6xHis removed by TEV protease; chain copies: 2; label: 5' biotin; partly folded, stem-loops predicted by mfold.
Data set [2] deals with T1, CsrA. Description: EMSA; 0.1 nM RNA, 0-640 nM CsrA (Fig 3B); 1 nM RNA in Fig 3C. Particulars: protein: recombinant; tags: N-terminal 6xHis removed by TEV protease; chain copies: 2; label: 3' biotin; two adjacent hairpins (mfold).
For data set [3], the target named is T1, CsrA. As to the kind of experiment: EMSA; 1 nM RNA, 640 nM CsrA. Particulars: protein: recombinant; tags: N-terminal 6xHis removed by TEV protease; chain copies: 2; label: 3' biotin; two adjacent hairpins (mfold).
Data set [4] deals with T1, CsrA. As to the kind of experiment: EMSA; 1 nM RNA, 640 nM CsrA; also no binding when mixed with CsrB-right. Particulars: protein: recombinant; tags: N-terminal 6xHis removed by TEV protease; chain copies: 2; label: 3' biotin; hairpin (mfold). (Mobility shift assays separate free from complexed probe on a gel.)
The target of data set [5] is T1, CsrA. As to the kind of experiment: EMSA; 1 nM RNA, 640 nM CsrA; also no binding when mixed with CsrB-left. Particulars: protein: recombinant; tags: N-terminal 6xHis removed by TEV protease; chain copies: 2; label: 3' biotin; hairpin (mfold).

T1 sequence (Q9KUH3 whole entry): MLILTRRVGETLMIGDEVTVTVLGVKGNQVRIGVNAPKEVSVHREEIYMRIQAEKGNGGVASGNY

B1: toxR 5'UTR (ssRNA)
RNA: GCAUUUUUAUCAAAGAAGAUAAAAAAACCAGUAAAGUCUGAGUGUUGGGACAGGGAGAUACUGGGACAUUAGAUGUUCGGAUUAGGACACAACUCAAAAGAGAUAUCGAUG
For the molecule B1, the binding result in data set [1] is “binds”.

Turning to UUAGAUGCAGGGAGCACCUUUUAGUAGCUGGAAUGCUGCGA (structured_RNA) [CsrB oligo], the binding result in data set [2] is given as “binds”.

For the molecule UUAGAUGCAUAUAGCACCUUUUAGUAGCUGGAAUGCUGCGA (structured_RNA) [mut-left], the binding result in data set [3] is reported as “no binding”.

As for UUAGAUGCAUAUAGCACCUUUUAGUAGCUAUAAUGCUGCGA (structured_RNA) [CsrB-mut (oligo-mut)], in data set [3], the binding result is given as “no binding”.

For UUAGAUGCAGGGAGCACCUUU (structured_RNA) [CsrB-left], the binding result in data set [4] is “no binding”.

As to UUUUAGUAGCUGGAAUGCUGCGA (structured_RNA) [CsrB-right], the binding result in data set [5] was “no binding”.
